According to patent US6545137:

Biological target: low-density lipoprotein (LDL), 125I-labelled
Assay: cell-based or functional assay

LDL uptake (40 ug/ml 125I-LDL, 4 h, 37 C, FH fibroblasts infected with LRP5 adenovirus) [% increase]	LDL uptake (40 ug/ml 125I-LDL, 4 h, 37 C, FH fibroblasts infected with LDL-receptor adenovirus) [fold]	Substance
60	–	human LRP5 (LDL-receptor related protein-5), isoform 1 (from UniProt O75197 32-1615)
–	20	human LDL-receptor (from UniProt P01130 22-860)
